Laboratory results from the Immune Epitope Database (IEDB).

Experiments:
Conditions in all cases: source organism: Homo sapiens
HLA-A*02:01 = test: IEDB peptide-MHC binding, purified MHC/competitive/radioactivity; filed as Kd, often an IC50 or EC50 that approximates it; ≥ and ≤ were set here for values at or beyond the usual limits of such assays
HLA-A*03:01 [1] = test: as above
HLA-A*11:01 [2] = test: as above
HLA-A*03:01 [3] = test: IEDB peptide-MHC binding, purified MHC/competitive/radioactivity; ≥ and ≤ were set here for values at or beyond the usual limits of such assays
HLA-B*07:02 = test: IEDB peptide-MHC binding, purified MHC/competitive/radioactivity; filed as Kd, often an IC50 or EC50 that approximates it; ≥ and ≤ were set here for values at or beyond the usual limits of such assays
HLA-A*11:01 [4] = test: IEDB peptide-MHC binding, purified MHC/competitive/radioactivity; ≥ and ≤ were set here for values at or beyond the usual limits of such assays
HLA-B*27:01 [5] = test: IEDB peptide-MHC binding, purified MHC/competitive/radioactivity; filed as Kd, often an IC50 or EC50 that approximates it; ≥ and ≤ were set here for values at or beyond the usual limits of such assays
HLA-A*24:02 = test: as above
HLA-B*08:01 = test: as above
HLA-B*27:01 [6] = test: IEDB peptide-MHC binding, purified MHC/competitive/radioactivity; ≥ and ≤ were set here for values at or beyond the usual limits of such assays

Sequence VASGAGEAAI has a Kd (HLA-A*02:01) of no less than 50 µM.
TINKEEALQR was tested, and the Kd (HLA-A*03:01 [1]) was no less than 30 µM and the Kd (HLA-A*11:01 [2]) was no less than 30 µM.
DLSSCITQGKA gave a Kd (HLA-A*02:01) of no less than 50 µM.
For GKQSSKALQR, the Kd (HLA-A*11:01 [2]) was no less than 5 µM and the IC50 (HLA-A*03:01 [3]) was 0.545 µM.
With PLTINKEEAL the Kd (HLA-A*02:01) was no less than 30 µM.
EALQRPVASDF gave a Kd (HLA-B*07:02) of no less than 30 µM.
TGFKQSSK was tested, and the Kd (HLA-A*03:01 [1]) was no less than 30 µM and the Kd (HLA-A*11:01 [2]) was no less than 30 µM.
KQSSKALQR gave an IC50 (HLA-A*03:01 [3]) of 0.043 µM and an IC50 (HLA-A*11:01 [4]) of 0.273 µM.
For QSSKALQR, the Kd (HLA-A*03:01 [1]) was no less than 30 µM and the Kd (HLA-A*11:01 [2]) was no less than 30 µM.
HVASGAGEAAI gave a Kd (HLA-A*02:01) of no less than 50 µM.
INKEEALQR gave a Kd (HLA-A*11:01 [2]) of no less than 30 µM.
Work on GFKQSSKALQR yielded a Kd (HLA-A*11:01 [2]) of 2.15 µM and an IC50 (HLA-A*03:01 [3]) of 0.81 µM.
ATGFKQSSK showed an IC50 (HLA-A*03:01 [3]) of 0.3 µM and an IC50 (HLA-A*11:01 [4]) of 0.097 µM.
NKEEALQR gave a Kd (HLA-B*27:01 [5]) of no less than 30 µM.
Work on CITQGKAI yielded a Kd (HLA-A*02:01) of no less than 50 µM.
KALQRPVSDF was tested, and the Kd (HLA-A*24:02) was no less than 30 µM.
ATGFKQSSKAL gave a Kd (HLA-A*02:01) of no less than 30 µM and a Kd (HLA-B*08:01) of 3.6 µM.
Work on GFKQSSKAL yielded an IC50 (HLA-B*27:01 [6]) of 0.19 µM.
TINKEEAL gave a Kd (HLA-A*02:01) of no less than 30 µM.
Sequence SATGFKQSSK has a Kd (HLA-A*03:01 [1]) of 5.45 µM and a Kd (HLA-A*11:01 [2]) of 3.53 µM.
HSATGFKQSSK gave an IC50 (HLA-A*03:01 [3]) of 0.4 µM and an IC50 (HLA-A*11:01 [4]) of 0.125 µM.
In the case of LTINKEEAL, the Kd (HLA-A*02:01) is reported as no less than 30 µM and the Kd (HLA-B*08:01) is reported as 1.9 µM.
